Measured values taken from the supplement of paper PMC10126150.
± gives the standard deviation of the averaged measurements.

Test system: ATP
Assay: switch fluorescence ratio, 500 uM ATP over buffer (Cy3 cluster intensity, sum of 5 cycles each) (fold (ratio)); higher = stronger signal-on switching upon ATP binding; sequences stand for … in TCGTCGGCAGCGTCAGATGTGTATAAGAGACAGTTTTTTTTTTTTTTTTTTTTTTTTT…TC
Conditions: aptamer strand: ATP DNA aptamer (quencher-CACCTGGGGGAGTATTGCGGAGGAAGG + anchor), 100 nM annealed; ATP concentration: 500 uM
Summary of the method: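 Per cluster, summed Cy3 intensity from the target cycles was divided by that from the buffer cycles to give the fluorescence ratio, then averaged per switch-domain sequence. Clusters outside 100-1000 RFU were excluded. The Cy3-labelled switching-strand clusters, on a modified Illumina MiSeq flow-cell, were annealed to 100 nM quencher-labelled ATP aptamer and imaged in selection buffer, then after 15 min with 500 uM ATP at 22 °C, for five cycles with NaOH stripping and re-annealing between them.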
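Also: ATP exposure 15 min at 22 °C before imaging.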

Row | Sequence | switch fluorescence ratio
1 | ATCAAAACGT | 1.04 ± 0.043
2 | ATCAAAGGTG | 1.404 ± 0.0027
3 | ATCAAATATC | 1.036 ± 0.0086
4 | ATCAACACCG | 1.06 ± 0.034
5 | ATCAACGGTG | 1.01 ± 0.044
6 | ATCAACGTTA | 1.07 ± 0.031
7 | ATCAAGACAG | 1.01 ± 0.033
8 | ATCAAGAGGG | 1.01 ± 0.014
9 | ATCACAGGTT | 1.07 ± 0.0082
10 | ATCACGGGAT | 1.015 ± 0.0039
11 | ATCACTTTAT | 1.38 ± 0.51
12 | ATCAGAATCC | 1.04 ± 0.013
13 | ATCAGACGGG | 1 ± 0.025
14 | ATCAGAGGTG | 1.14 ± 0.0059
15 | ATCAGCGACT | 0.993 ± 0.043
16 | ATCAGGTAAG | 0.9682 ± 0.0024
17 | ATCAGTATAT | 0.992 ± 0.021
18 | ATCAGTTGTT | 1.0008 ± 0.00044
19 | ATCATAAGTT | 1.01 ± 0.016
20 | ATCATAATCT | 1.013 ± 0.0034
21 | ATCATACTTG | 1.03 ± 0.029
22 | ATCATATTCG | 0.99 ± 0.02
23 | ATCATCGGGG | 0.988 ± 0.043
24 | ATCATGCCTA | 0.989 ± 0.033
25 | ATCATGTGCG | 1.01 ± 0.033
26 | ATCCAGACGG | 1.04 ± 0.026

Row | Sequence | switch fluorescence ratio
27 | ATCCAGGTTG | 1.68 ± 0.11
28 | ATCCATATT | 1.03 ± 0.029
29 | ATCCCCGACC | 1.25 ± 0.063
30 | ATCCGCTTTA | 3.28 ± 0.25
31 | ATCCGGGTGT | 2.74 ± 0.17
32 | ATCCGGTCGC | 1.04 ± 0.029
33 | ATCCGGTCGG | 1.03 ± 0.066
34 | ATCCGTGAGA | 1.05 ± 0.02
35 | ATCCGTGATG | 1.11 ± 0.051
36 | ATCCTCTCGG | 1.05 ± 0.017
37 | ATCCTTGTTG | 0.965 ± 0.027
38 | ATCGACATAT | 1.043 ± 0.0031
39 | ATCGACATTA | 1.01 ± 0.017
40 | ATCGACGTGT | 1.02 ± 0.02
41 | ATCGAGGGA | 0.995 ± 0.061
42 | ATCGAGTAAG | 1.02 ± 0.029
43 | ATCGATGAGG | 0.991 ± 0.058
44 | ATCGATTGT | 0.973 ± 0.028
45 | ATCGCAATTG | 1.89 ± 0.36
46 | ATCGCGGGTT | 0.99 ± 0.05
47 | ATCGCGTCGT | 0.995 ± 0.035
48 | ATCGCTATGT | 1.05 ± 0.043
49 | ATCGCTGGGA | 0.972 ± 0.02
50 | ATCGCTTACA | 1.02 ± 0.028
51 | ATCGGAAAG | 1.65 ± 0.92
52 | ATCGGAATGT | 1.012 ± 0.0063

Row | Sequence | switch fluorescence ratio
53 | ATCGGAGCCA | 1.02 ± 0.047
54 | ATCGGAGGGC | 1.02 ± 0.013
55 | ATCGGAGGGG | 0.957 ± 0.015
56 | ATCGGAGTTC | 0.989 ± 0.047
57 | ATCGGATATA | 0.989 ± 0.015
58 | ATCGGATGTA | 1.016 ± 0.0084
59 | ATCGGCAGGG | 0.981 ± 0.052
60 | ATCGGGGTAA | 1.04 ± 0.068
61 | ATCGGGTGCG | 0.981 ± 0.022
62 | ATCGGTACGT | 1.03 ± 0.021
63 | ATCGGTATCC | 1.035 ± 0.0064
64 | ATCGGTCCTT | 1.03 ± 0.027
65 | ATCGGTCTGT | 0.975 ± 0.018
66 | ATCGGTCTTG | 1 ± 0.004
67 | ATCGGTTACC | 1.011 ± 0.0045
68 | ATCGTAAAAG | 0.9926 ± 0.0011
69 | ATCGTAGATT | 0.993 ± 0.016
70 | ATCGTAGGTT | 0.972 ± 0.015
71 | ATCGTATGGT | 1 ± 0.023
72 | ATCGTATTGT | 0.993 ± 0.03
73 | ATCGTCATGG | 1.01 ± 0.012
74 | ATCGTCGGTA | 1.03 ± 0.017
75 | ATCGTCGGTT | 0.973 ± 0.013
76 | ATCGTGGGAT | 1.01 ± 0.0081
77 | ATCGTTAGAA | 1.006 ± 0.0025
78 | ATCGTTGGCT | 1.04 ± 0.07

Row | Sequence | switch fluorescence ratio
79 | ATCTAACGGC | 1.01 ± 0.0079
80 | ATCTAATGCC | 1.01 ± 0.042
81 | ATCTAGTACG | 1.02 ± 0.044
82 | ATCTCCGGGG | 1.04 ± 0.016
83 | ATCTCGCGCA | 1.36 ± 0.11
84 | ATCTCGGGTG | 1.01 ± 0.043
85 | ATCTCTGTAA | 1.264 ± 0.0068
86 | ATCTCTTTTA | 0.954 ± 0.0099
87 | ATCTGAGTAG | 0.999 ± 0.023
88 | ATCTGAGTTG | 0.989 ± 0.031
89 | ATCTGATATT | 1.01 ± 0.033
90 | ATCTGCAACA | 1.62 ± 0.042
91 | ATCTGCTAGG | 1.01 ± 0.031
92 | ATCTGGGGCC | 1.01 ± 0.012
93 | ATCTGGTGCA | 1.055 ± 0.0059
94 | ATCTGTCAAG | 0.9954 ± 0.0058
95 | ATCTTCCAGG | 1.614 ± 0.0089
96 | ATCTTCGGGC | 0.9869 ± 0.0065
97 | ATCTTTATAT | 0.994 ± 0.019
98 | ATCTTTGTTG | 0.987 ± 0.018
99 | ATGAAATTGT | 1.02 ± 0.033
100 | ATGAACAGGG | 1.01 ± 0.05
101 | ATGAAGCGGT | 1.04 ± 0.083
102 | ATGAATGGAG | 1.01 ± 0.026
103 | ATGAATGTTA | 1.006 ± 0.0075
104 | ATGAATTCTG | 1.059 ± 0.0049

Row | Sequence | switch fluorescence ratio
105 | ATGACAGCGG | 1.01 ± 0.11
106 | ATGACGCTGG | 1.03 ± 0.13
107 | ATGACGGGGT | 1.05 ± 0.085
108 | ATGACGGTAG | 0.97 ± 0.062
109 | ATGAGAACTC | 1.024 ± 0.0051
110 | ATGAGAAGTG | 0.969 ± 0.014
111 | ATGAGCAAGA | 1.49 ± 0.015
112 | ATGAGCCGAG | 0.9983 ± 0.009
113 | ATGAGCTGGG | 0.966 ± 0.015
114 | ATGAGGAGGA | 1.04 ± 0.013
115 | ATGAGGGTCT | 0.999 ± 0.044
116 | ATGAGGGTGC | 0.994 ± 0.054
117 | ATGAGGTTCA | 0.9759 ± 0.0049
118 | ATGAGGTTTC | 0.989 ± 0.016
119 | ATGAGTAAAG | 0.999 ± 0.025
120 | ATGAGTATTG | 0.9888 ± 0.0078
121 | ATGAGTCTAA | 0.992 ± 0.011
122 | ATGAGTGGGG | 1.01 ± 0.029
123 | ATGAGTTTTT | 1.01 ± 0.054
124 | ATGATAAAAT | 1.11 ± 0.13
125 | ATGATAAGGG | 0.979 ± 0.013
126 | ATGATACATA | 1.02 ± 0.019
127 | ATGATAGAAC | 1.03 ± 0.015
128 | ATGATATTTT | 0.986 ± 0.027
129 | ATGATCAATT | 1.02 ± 0.049
130 | ATGATGAGTT | 0.986 ± 0.01

Row | Sequence | switch fluorescence ratio
131 | ATGATGCGGG | 1.01 ± 0.044
132 | ATGATGTCGG | 1.03 ± 0.033
133 | ATGATTAAGG | 1.015 ± 0.0029
134 | ATGATTAGTT | 1.01 ± 0.046
135 | ATGATTCCTT | 1 ± 0.03
136 | ATGATTTAGG | 0.9998 ± 0.0095
137 | ATGCACACCG | 1.087 ± 0.0016
138 | ATGCACGGAA | 1.05 ± 0.036
139 | ATGCACTGGT | 1.01 ± 0.026
140 | ATGCAGATTA | 1.023 ± 0.0051
141 | ATGCAGGCAC | 1.03 ± 0.024
142 | ATGCAGGGCT | 0.962 ± 0.041
143 | ATGCATAGTT | 0.963 ± 0.017
144 | ATGCATGCGT | 1 ± 0.048
145 | ATGCATTTGT | 1.01 ± 0.031
146 | ATGCCTCGGG | 1.02 ± 0.032
147 | ATGCGAAGG | 0.98 ± 0.038
148 | ATGCGAAGTG | 1 ± 0.039
149 | ATGCGACGGC | 1.05 ± 0.028
150 | ATGCGATGTA | 1.04 ± 0.046
151 | ATGCGCTTTT | 1.03 ± 0.089
152 | ATGCGGTGTG | 0.978 ± 0.04
153 | ATGCGTATTT | 0.975 ± 0.039
